The target of the assay is ARTS-VN (UniProt O43236). Nature of the assay: split reporter.

In turn, “Bcl-2delBH3-VC (from UniProt P10415 1-239) (natural protein)” yielded a percent decrease of the BiFC signal compared to WT Bcl-2 of 47%.

Source of the values: publication PMC5667555.
